From FireProtDB (doi:10.1016/0022-2836(82)90184-x) come the findings set out here.

The conditions of this data set: Escherichia coli (strain K12), 25 °C, GdnHCl, CD, reversible: yes, whole UniProt chain shown.

B1: Tryptophan synthase alpha chain wild type, P0A877 (protein)
chain: MERYESLFAQLKERKEGAFVPFVTLGDPGIEQSLKIIDTLIEAGADALELGIPFSDPLADGPTIQNATLRAFAAGVTPAQCFEMLALIRQKHPTIPIGLLMYANLVFNKGIDEFYAQCEKVGVDSVLVADVPVEESAPFRQAALRHNVAPIFICPPNADDDLLRQIASYGRGYTYLLSRAGVTGAENRAALPLNHLVAKLKEYNAAPPLQGFGISAPDQVKAAIDAGAAGAISGSAIVKIIEQHINEPEKMLAALKVFVQPMKAATRS
Turning to B1, the unfolding free energy was found to be 5.2 kcal/mol (pH 5.5, acetate 0.05 M); 8.8 kcal/mol (pH 7, Potassium phosphate 0.01 M); 4.9 kcal/mol (pH 9, Tris-HCl 0.025 M).
